The target of the assay is human FcγRIIIA (176V isoform, R&D systems, 4325-FC) (human, UniProt P08637 17-208). As to the kind of experiment: BLI. Background: BLI is a label-free optical method that tracks binding on a fibre tip over time.
Chain of human FcγRIIIA (176V isoform, R&D systems, 4325-FC) (P08637 17-208 F176V): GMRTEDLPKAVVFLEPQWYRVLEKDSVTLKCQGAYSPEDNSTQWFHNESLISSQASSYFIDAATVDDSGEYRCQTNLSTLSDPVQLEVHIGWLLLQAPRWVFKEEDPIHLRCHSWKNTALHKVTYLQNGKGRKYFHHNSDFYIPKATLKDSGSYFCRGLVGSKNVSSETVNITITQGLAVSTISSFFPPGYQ

B1: H01DE4 (antibody)
heavy: not shown
light: not shown
chain: DKTHTCPPCPAPELLGGPDVFLFPPKPKDTLMISRTPEVTCVVVDVSHEDPEVKFNWYVDGVEVHNAKTKPREEQYNSTYRVVSVLTVLHQDWLNGKEYKCKVSNKALPAPEEKTISKAKGQPREPQVCTLPPSREEMTKNQVSLSCAVKGFYPSDIAVEWESNGQPENNYKTTPPVLDSDGSFFLVSKLTVDKSRWQQGNVFSCSVMHEALHNHYTQKSLSLSPGK
As a reminder, the Kd is the concentration at which binding is half-saturated. B1: the Kd was determined as 0.11 nM.

These data come from patent US20250236682A1 (published 2025).
